Measurements as given in PMC7020344.

Molecular target: Pyruvate kinase M2 isoform (human (endogenous in A549)) (UniProt P14618)
Assay: cross-linking; A549 cells washed with PBS pH 8.0 and treated with BS3 for 1 h at room temperature before lysis in loading buffer; dimers and tetramers by immunoblot; cells with eEF2K depletion, overexpression or A484954

Pyruvate kinase M2 isoform, P14618 1-531 (enzyme; other documents disagree on this pair), sequence (P14618 whole entry, canonical isoform): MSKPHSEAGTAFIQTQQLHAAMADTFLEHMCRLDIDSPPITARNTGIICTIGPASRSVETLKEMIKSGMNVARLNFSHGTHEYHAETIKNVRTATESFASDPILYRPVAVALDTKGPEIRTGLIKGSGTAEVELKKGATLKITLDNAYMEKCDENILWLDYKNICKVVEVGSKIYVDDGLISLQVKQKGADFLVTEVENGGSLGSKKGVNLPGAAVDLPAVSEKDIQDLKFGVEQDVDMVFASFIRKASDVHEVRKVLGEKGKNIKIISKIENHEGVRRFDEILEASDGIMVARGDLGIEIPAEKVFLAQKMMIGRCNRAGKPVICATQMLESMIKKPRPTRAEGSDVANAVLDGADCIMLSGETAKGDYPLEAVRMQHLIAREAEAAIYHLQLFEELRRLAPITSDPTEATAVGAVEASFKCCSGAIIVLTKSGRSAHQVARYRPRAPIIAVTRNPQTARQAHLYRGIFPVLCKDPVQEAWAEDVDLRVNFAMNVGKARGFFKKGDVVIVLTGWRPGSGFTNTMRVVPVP

stoichiometry N: 2
Substance: Pyruvate kinase M2 isoform, P14618 1-531 (enzyme; other documents disagree on this pair)
